Data on 2 molecules can be found in PMC11473482, “Highly efficient synthesis of the chiral ACE inhibitor intermediate (R)-2-hydroxy-4-phenylbutyrate ethyl ester via engineered bi-enzyme coupled systems” (Bioresources and Bioprocessing, 2024).

The subject of one data set is T1, CpCR-L-GDH.
T1 construct: fusion: CpCR N-terminal, (GGGGS)2 linker, GDH C-terminal; about 69 kDa; pETDuet-1, E. coli BL21(DE3); with Glucose 1-dehydrogenase
As to the kind of experiment: NADPH depletion at […] nm. Conditions: 100 mM phosphate pH 7.0, NADPH co-substrate, fused GDH; substrate of Km not given, OPBE by the assay. Type of data set: biochemical.

A further data set has as its system T2, GDH-L-CpCR.
T2 construct: fusion: GDH N-terminal, (GGGGS)2 linker, CpCR C-terminal; pETDuet-1, E. coli BL21(DE3); with Glucose 1-dehydrogenase
As to the kind of experiment: NADPH depletion at […] nm. Type of data set: biochemical. The note with it: 100 mM phosphate pH 7.0, NADPH co-substrate, fused GDH; substrate of Km not given, OPBE by the assay.

Substrate in the data set “purified protein”: CCOC(=O)C(=O)CCc1ccccc1
As to the kind of experiment: purified protein. Type of data set: biochemical, Lodderomyces parapsilosis. Conditions: 100 mM phosphate pH 7.0, NADPH co-substrate, enzyme from pETDuet-1 strain, substrate of Km not given, OPBE by the assay.

As a reminder, the Km is the substrate concentration at which the rate is half of its maximum. `CCOC(=O)C(=O)CCc1ccccc1` [OPBE]: the Km with CpCR-L-GDH is 18.9 mM; in the data set on GDH-L-CpCR it was 16.5 mM.

B1: CpCR (Lodderomyces parapsilosis) (protein)
chain: MTKAVPDKFQGFAVSDPKNWNRPKLASYERKQINPHDVVLKNEVCGLCYSDIHTLSAGWQPLQRDNLVVGHEIIGEVIAVGDEVTEFKVGDRVGIGAASSSCRSCQRCDSDNEQYCKQGAATYNSKDVRSNNYVTQGGYSSHSIADEKFVFAIPEDLPSSYGAPLMCAGITVFSPLIRNLGLDARGKNVGIIGIGGLGHLALQFANAMGANVTAFSRSSSKKEQAMKLGAHDFVATGEDKTWYKNYDDHFDFILNCASGIDGLNLSEYLSTLKVDKKFVSVGLPPSEDKFEVSPFTFLQQGASFGSSLLGSKTEVKEMLNLAAKHNVRPMIEEVPISEENCAKALDRCHAGDVRYRFVFTDFDKAFKA
notes: full-length ORF, 368 residues, about 41 kDa; His-tagged, expressed from pETDuet-1 in E. coli BL21(DE3), Ni-NTA purified
In general, kcat refers to the maximal rate divided by the concentration of active sites. The kcat/Km is the turnover number divided by the Michaelis constant. Regarding B1, in “purified protein”, the Michaelis-Menten constant (Km) stood at 19.32 mM, the kcat is 1.77 s⁻¹ and the kcat/Km was determined as 91 M⁻¹ s⁻¹.
